The values below come from a protein production outcome set (Wang et al. 2014).
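Also: failed if final PepcDB status was selected cloned or expressed and not failed if soluble or beyond.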

This series is described as follows: label from the status in PepcDB records.
As to “MASRSKPSVRAFARQVHLWLGLSIGVLFAVVGLTGSILVFYTAIDDALHPEIRLRGAAPPPSWEQVYQTARATYPDKAGPWRFEVTEAGGDIPARYYKPPERADRDFAPMMVWFSADGGRVIRRDYWGEYAMTWVYDLHHRLLLQATGGAILGWSGLAMLALMVAGLTAWWPRRGGWRKALQMKPRAAPLRKLYDWHKQTGLWSFGLLVLLTLTGVLLALPKESEIALRPILGPPAGAPTIDKSITFDPGTRISVDQAVAIAQGALPGARLAWIETPSTDSGVYRLRLQTPGDPSRRFPHSFVWITPATGEVLAMTDARQAGAHDVLLNWTHPLHDASAGGLPARLLAVLVGLAPSALLILGFMRWRQRLRPQERKLSDHS”, the protein production result is reported as “failed”.

For “MYRLLALFVPPEAAFRTGRGFSFDAGEVTGAIGDSVTVLPLVVALGLLTPASLPHLLAGFGVFQVIWGLYYGVPLSVEPMKALAGLAIAGTLSHGGLVAAGLVAGGVLLVAGRTGSLSWIQQFVGEPVVRGVQFAVACLLVVAAVDLVAGSVGIAAAGAGLALVVALVSRNAVALVVLAVGAVWAATAGGIPAPAAPSLELFPAGGPTLSVGAIEGLLAQLAMTVGNAAVATSLLLSDLYDAEISPDRLADSMGAMNLAAVPLGAVPMCHGSGGLAGKHAFGARTGTANLVAGGFYAGLALVAGLLAAFPMALLGVLLVVVAASLSRVAFTKTDRRLFVAGVGGLAVVTNVAVAFVAATLWWQLRG”, the protein production entry is “failed”.

As for “QLLEPIRDFEARKCPVHGKTMELFCQTDQTCICYLCMFQEHKNHSTVTVEEAKAEKETE”, the protein production result is on record as “not failed”.

Take “SPINPYKDHMSVLKAYYAMNMEPNSDELLKISIAVGLPQEFVKEWFEQRKVYQYSNSR”: the protein production entry is “not failed”.

On to “IQVDYEDVKLDGYFFSPSWIKGPKPTILALNGGDEWSIENYFWLGPAFISCGYNFMVYDQPGTGLSMYEKGKGRRADSEAFHSRAIDFLLTRPEVDPNKIIVHGESFAAYDSLRFASFDHRIAAVISDGGTHAFDWEAMLKWMPPSLAGHGMRILGAKSLDDFAENPRFAYNLEGVLHQIECPLLVMHGAEEILVQPNPLTQALKNYEQAGSKNKTFFPIEDRRIGGLEHCQVDNINVLHEVVLNWL”, for which the protein production entry was “not failed”.

In the case of “MAIGRLGYLVRGAWAGGVMLLAAGSAWAAPNWPLAPYSYYAQQQSLSDVLREFAAGFSLALQQGKGVQGVVNGRFNARTPTEFIERLSGIYGFNWFVHAGTLYVSRTSDVVTRAVDAAGASPSALRQALLQLGILDERFGWGELPAQGVAMVSGPPAYVALVEQAVAALPKGAGNQQVAVFRLKHASVSDRVIRYRDQQVVTPGMATMLRQLILGAGPGNDAALAAVAAPLRENPPVFGDAAADGNAPLAGAAQAAGRRLSEPSVQADTRLNALIVQDIPERMPIYRALIEQLDVPSTLIEIEAMIVDVNTDLVNELGVTWGAQIGTTSLGYGDLGLRPGNGLPVDGAAADLAPGTLGISVSTRLAARLRALESDGQANILSQPSILTADNLGAMIDLSDTFYIRTLGERVATVTPVTVGTSLRVTPRYIAAKGGRQVELAIDIEDGRVLQEYPIDGLPRVRKSSISTLAVVGDEQTLLIGGYNNRRDEEQVEKVPLLGDIPGLGFLFSSKSRAVQRRERLFLIRPRVVAIEGKPVFSPVAGTSQVFMSTGWGGHGSSLSIAPGEGGHTQVRHDARAGRPVRLVPDSLHVEYGEAGEASP”, the protein production entry is listed as “failed”.

As to “MSDKFNQFINRVLSHEGGYANHPKDPGGETNWGITKRTAQANGYNGSMRAMTREQAISIYRKAFWERYRADQMPEAVAFQFFDACVNHGYGNAARMLQRAAGVPDDGVIGAVSLKAINSLPENDLLLRFNAERLVFYTKLGTFTSFGKGWVRRVAQNLIHASADNTD”, the protein production entry was “not failed”.

In the case of “MSLTFPTLSPTQIIQYIHLGSFLNAHNVDYIHNNNISSILLVGIEVPSLFKDQCDILRLDIVSEEGHQLYDSIPNAIKFIIRSIQRKEGVLIISGTGVNKAPAIVIAFLMYYQRLSFINAFNKVQGLYPLIDIESGFILQLKLFEKKLEKMNSEGHHHHHH”, the protein production result is “not failed”.

Consider “MKQRIPTLLAGACLAIPLHALGAADLLVVNARIFTANPQQPFAEALAVEDGRILAVGDEAGLRALADGDSQVVDLGGKRLMPGLIDTHSHAVFGGLELAGADMGNEQVGLDELERRLRAWRDNGKARHGDMLNVSGMHTAYWSQVKDFRARFDHGEWADQPLAFIGSDHHTGWANAAMLKRAGIDAARVRALPEEQRNTIGHDADATPNGFLADAGLDAVLAVLPAPSAEQMLEAGRSAVRYSNSLGLTAWMDPAANGSPGDALFSLRPDENTVGVLPVYHRLAKGGELSAHVAALLVANPRSRPTDLEVLDKVRQRFLGSPNLTLPGIKVFADGVPEYPAQTAALLEPYRNSRKTGELLIDPAHFGELVSAADARGWLVHVHAIGDRAVREALNGMQQARRDRDSGIAHSITHLQLVNPKEFERFRPLGVIASMQLYWAAADETTVDLMKPYISAFAYRYQYPAHSLLSKGATIAGASDWPVSSLSPWKAIQQAVTRKGPQGVLNAGERLDRQTMFYAYTRNAARTIGLEHRIGSLEPGKQADFIVLDRDVFEVPETQLGETKVLKTWFAGKPVYSSEG”, for which the protein production result was “failed”.

As for “MPGTGLPIRGRRDPETIETRCLNNDQDSRLALIHAWLQTLPGSLGLRPETMEPASSDASFRRYFRLQAAAGTLIVMDAPPPHEDVRPFVHIDGLLREAGVNVPEIVAQDAGQGLLLLSDLGQDTFYQRIRAGISDAQLQSMYRDTLATLVRLQQASTAGLPAYDGARLAAELELFPEWYVGRHHGVTLDDKTAAALRQIFGLLAAEGDTGHRVLVHRDFHSPNLMVCDEPRYGPNPGVIDFQDALAGPLTYDLASLVTDARTTWEEPQQLDWAIRYWELARAAGLPVDADFAQFHRAYEWTGLQRNLRILGVFARLNHRDGKSIYLSHMPRVSGYVRQVAQRYGAFAPLLRLLDKLDDRQVQVGYTF”, the protein production result is “failed”.

On to “VTRRIAICAPSTPFTREDSARVIALAAAEFPDLSLSFHEQCFASEGHFAGSDALRLSAFLECANDDAFEAVWFVRGGYGANRIAEDALARLGRAASAKQYLGYSDAGTLLAALYAHRIGRSVHAPMPVDIRRPEGESAVRRTLGWLAGAREGLEPTLGAGAPAVAFNLMTLAMLCGTRLLPDLSGHVVMIEEVAEHHYAVDRLLFHVTSCLADAGIAGLRLGRVSDVPENDRPFGCSVEEMARHWCHRAGIAFLGTADIGHDVDNRIVPFGLA”, for which the protein production result is “not failed”.

Turning to “MASSISAAEVKVVPEEYNFLQKHVAFFDRNKDGIVYPSETFQGFRAIGCGYLLSTFAAVFINISLSSKTRPGKGFSFSFPIEVKNVRLGIHSSDSGVYDKDGRFVASKFEEIFAKHAHTHRDALTSKELKELLKANREPNDCKGGILAFGEWKVLYNLCKDKSGLLHKEIVRAVYDGSLFEQLEKQRSSKTP”, the protein production result is “failed”.

On to “SRPATPPVTPPSREGHVADLDRFPQDLRVYAMKAGADRQLLPFTEQAAQDARWNRRFFAPWRMTRISVPVKDVAAPFGTDGRPRGYAENLLPWDVTRWGALASGAALDLYPSQAWKGIVVSNSALREVPTLRPMFTAPTRAGQGYPFDMFQRTAVWMGTPVFVGHATADRAWLYVETAFAAGWMPAADVARVDDAFMTRYESGSLAAILRDDTSLNGADGTHLATAHIGTVLPLSGASQVGRTVLVPVRAPEGHAVVVPVLLTSGEAAQKPVPLTPGNMAELGNRMMGQPYGWGGLYEDRDCSSTLRDLFTPFGLWLPRNSASQAKAGRYVDIAKLDADDKEARIVAEGVPFMTLLWLRGHITLYLGLHEGQAAMFHNMWGIRTHRGGVEGRYVLGRAVVTSTRPGLDVPGNDNADGLLGRMQGMSILPGGAQ”, for which the protein production entry is recorded as “not failed”.

In the case of “MCNDTATPQLEELVTTVANQLMTVDAATSAEVSQRVLAYLVEQLGVDVSFLRHNDRDRRATRLVAEWPPRLNIPDPDPLRLIYFADADPVFALCEHAKEPLVFRPEPATEDYQRLIEEARGVPVTSAAAVPLVSGEITTGLLGFIKFGDRKWHEAELNALMTIATLFAQVQARVAAEARLRYLADHDDLTGLHNRRALLQHLDQRLAPGQPGPVAALFLDLDRLKAINDYLGHAAGDQFIHVFAQRIGDALVGESLIARLGGDEFVLIPASPMSADAAQPLAERLRDQLKDHVAIGGEVLTRTVSIGVASGTPGQHTPSDLLRRADQAALAAKHAGGDSVAIFTADMSVSGELRNDIELHLRRGIESDALRLVYLPEVDLRTGDIVGTEALVRWQHPTRGLLAPGCFIPVAESINLAGELDRWVLRRACNEFSEWQSAGLGHDALLRINVSAGQLVTGGFVDFVADTIGQHGLDASSVCLEITENVVVQDLHTARATLARLKEVGVHIAIDDFGTGYSAISLLQTLPIDTLKIDKTFVRQLGTNTSDLVIVRGIMTLAEGFQLDVVAEGVETEAAARILLDQRCYRAQGFLFSRPVPGEAMRHMLSARRLPPTCIPATDPALS”, the protein production result is “failed”.

Turning to “MNQHSFSLDDYYKSLINLDGMNDYYRYFIGLNGIIFPLLLIMSYPSVINLATKASFLIMLVGACCVLIDNWNRKSIAYRLYVELYENEYLANSDYKAGKVFVNLIFYVVSIYLISGVFGVL”, the protein production entry is listed as “failed”.

Consider “MVVAPYLAVAIGGSLGAMSRYLVTIMAQNAWGIKFPYGTLLVNTLGSFLAGFFLIVLVGRFSAEESFRLFLFTGFLGAFTTFSSFAAESLFMFEQGYWFKLMTNILVNNVGSLSMVFIGTLVAKYVLLGHQGSN”, for which the protein production entry is given as “failed”.

In the case of “MNVRHISYFNQWHGALVTNMLAGVLLALALLPGAIAFSFIAGVSPTIGMLSTGLMMLVISLTGNRTLMVSAPSSGVSLVVAPLMSSHGMPAVILATLIMGIIQILMGICRINKLLDYIPTGVVIGFMNALGVLLFTSQLKNILNISNATYVIAVASFLIIWLAQRYIRFMPAPLIAIIILTICAWWLKPDIVYVHHLASLHIHVPMLSFPDAMYDMHIVGISSMYGVTMAIVAVVQTTLTARMMDAVTATKSDKNKETIGQGVANTIVALFGGYGGSALVGQSRFNATMGATSRVSTLITGAFLLISLFVFGDIIGQIPMAVLATVLITISLNTFDRRTISFIKVSPIKHGAIVVLTMLIILSTNNLAAGVVLVSLLYYLIQGFNKRKGRDI”, the protein production result is given as “failed”.

As to “MDGAQPKTNFFERLIARLAREPDSAEDVLNLLRQAHEQEVFDADTLTRLEKVLDFAELEVRDAMITRSRMNVLKENDSIERITAYVIDTAHSRFPVIGEDKDEVLGILHAKDLLKYMFNPEQFHLKSVLRPAVFVPEGKSLTALLKEFREQRNHMAIVIDEYGGTSGLVTFEDIIEQIVGDIEDEFDEDESADNIHSVSAERWRIHAATEIEDINAFFGTEYGSEEADTIGGLVIQELGHLPVRGEKVLIGGLQFTVARADNRRLHTLMATRVK”, the protein production result was “failed”.

“RPSWGYARSMAGRLAGATAVLDVQTGGGEVLDFALEAAGPHRAPLVAATEGWAPNVAQATRLLRPRGVPVVASADDAPLPFADGAFDLVVSRHPVEPHWDEVARVLMPGGTYFAQHVGPASVFELIEYFLGPLPEDSRRHRDPERERADAEAAGLEVVELRAERLRMEFLDIGAVVHFLRKVVWMVPGFTVEAYRDRLRDLHERIEADGPFVAHSSRHLFDVRKP”: the protein production entry is recorded as “failed”.

Turning to “MSLMQLQLTQEWDKTFPLSAKVEHRKVTFANRYGITLAADLYLPKNRGGDRLPAIVIGGPFGAVKEQSSGLYAQTMAERGFVTLAFDPSYTGESGGQPRNVASPDINTEDFSAAVDFISLLPEVNRERIGVIGICGWGGMALNAVAVDKRIKAVVTSTMYDMTRVMSKGYNDSVTLEQRTRTLEQLGQQRWKDAESGTPAYQPPYNELKGGEAQFLVDYHDYYMTPRGYHPRAVNSGNAWTMTTPLSFMNMPILTYIKEISPRPILLIHGERAHSRYFSEIAYAAAAEPKELLIVPGASHVDLYDRLDRIPFDRIAGFFDEHLEGHHHHHH”, the protein production result is given as “not failed”.
